This passage reports Kd and stoichiometry N results from paper PMC9826837.

Assay [1] addresses Ser22/23 bisphosphorylated rat cardiac troponin complex (cTn-2P), Alexa647-labelled (rat) (UniProt Q4PP99). Nature of the assay: MST.
Assay [2] deals with N-terminal lobe of cardiac troponin C (NcTnC), Alexa647-labelled. The assay can be described thus: MST.
Assay [3] addresses nonphosphorylated rat cardiac troponin complex (cTn-0P), Alexa647-labelled (rat) (UniProt Q4PP99). The assay can be described thus: MST.
Assay [4] deals with Ser22/23 bisphosphorylated rat cardiac troponin complex (cTn-2P), Alexa647-labelled (rat) (UniProt Q4PP99). The assay can be described thus: MST. This is another data set of the same source.
The target of assay [5] is nonphosphorylated rat cardiac troponin complex (cTn-0P), Alexa647-labelled (rat) (UniProt Q4PP99). The assay can be described thus: MST. The source holds these as a separate data set.
For assay [6], the target named is rat cardiac troponin T (cTnT) (rat) (UniProt P50753). The assay can be described thus: SEC-MALS.

Like-named read-outs stand apart in the source and are kept apart here.

One may read the Kd as a measure of binding affinity in units of concentration. A word on the stoichiometry N: it is the number of molecules, sites or subunits per partner or assembly.

As to “nonphosphorylated N-terminal fragment of rat cMyBP-C encompassing domains C0, C1, m-motif and C2 (cC0C2-0P) (domain or fragment)”, the Kd in assay [1] worked out at 20 µM; in assay [2], 5 µM; in assay [3], 20 µM; in assay [4], 20 µM; in assay [5] it was 20 µM.
As to “rat cardiac troponin C (cTnC) (from UniProt Q4PP99 1-161) (natural protein)”, the stoichiometry N in assay [6] is 1.
